The text below walks through data of the supplement of paper PMC9112550, “Optimization of the antimicrobial peptide Bac7 by deep mutational scanning” (BMC Biology, 2022).

This series deals with Escherichia coli TOP10. The series is described as follows: shrunken log2 fold change of peptide-encoding DNA abundance (4.5 h post-induction vs induction); higher = less antimicrobial activity (less host growth inhibition). The conditions noted are these: time post-induction: 4.5 h; library: site-saturation at positions 5, 18, 19, 20.
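Also: peptides expressed intracellularly from a pBAD plasmid library in pooled LB shake-flask culture, induced with 0.3% L-arabinose, DNA abundance read by NGS, three biological replicates, DESeq2 with apeglm shrinkage.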

Take RRIRGRPPRLPRPRPRPSLYPRP: the “shrunken log2 fold change” value was 0.189.
Next, RRIRVRPPRLPRPRPRPHWLPRP: -0.291; RRIRPRPPRLPRPRPRPLMSPRP: -0.443; RRIRIRPPRLPRPRPRPNGGPRP: -0.108.
RRIRIRPPRLPRPRPRPYVNPRP: the “shrunken log2 fold change” value was -0.0125.
Next, RRIRSRPPRLPRPRPRPDNDPRP: -0.0528; RRIRARPPRLPRPRPRPMLGPRP: 0.211.
For RRIRFRPPRLPRPRPRPPPMPRP, the “shrunken log2 fold change” value worked out at 1.17.
Next, RRIRIRPPRLPRPRPRPMTRPRP: -0.0885; RRIRKRPPRLPRPRPRPHTSPRP: -0.469; RRIRARPPRLPRPRPRPPKEPRP: 0.818.
For the sequence RRIRYRPPRLPRPRPRPDNSPRP, the “shrunken log2 fold change” value is -0.779.
Next, RRIRDRPPRLPRPRPRPVNMPRP: -0.296; RRIRYRPPRLPRPRPRPIPSPRP: -0.0334; RRIRIRPPRLPRPRPRPPSLPRP: 0.18.
In the case of RRIRYRPPRLPRPRPRPFSDPRP it was -0.03; in that of RRIRQRPPRLPRPRPRPCSWPRP, 0.171; in that of RRIRGRPPRLPRPRPRPETMPRP, 1.14.
In the case of RRIRDRPPRLPRPRPRPTHQPRP it was 0.0642.
Turning to RRIRARPPRLPRPRPRPHPHPRP, the “shrunken log2 fold change” value amounted to 0.322.
Next, RRIRFRPPRLPRPRPRPKLRPRP: 0.147.
In the case of RRIRSRPPRLPRPRPRPPKCPRP it was -0.087.
With RRIRERPPRLPRPRPRPMCFPRP, the “shrunken log2 fold change” value was -0.176.
In the case of RRIRVRPPRLPRPRPRPDENPRP it was -0.0618; in that of RRIRVRPPRLPRPRPRPKTEPRP, 0.00185.
In the case of RRIRERPPRLPRPRPRPSHGPRP it was -0.263.
In the case of RRIRRRPPRLPRPRPRPFLFPRP it was 0.0785; in that of RRIRFRPPRLPRPRPRPTVIPRP, -0.371.
In the case of RRIRARPPRLPRPRPRPMFLPRP, the “shrunken log2 fold change” value worked out at 0.00213.
In the case of RRIRDRPPRLPRPRPRPYDAPRP it was -0.00235; in that of RRIRTRPPRLPRPRPRPDTCPRP, -0.0125; in that of RRIRRRPPRLPRPRPRPPHAPRP, 1.52.
In the case of RRIRSRPPRLPRPRPRPLHYPRP it was -0.908; in that of RRIRCRPPRLPRPRPRPWIPPRP, -0.457; in that of RRIRERPPRLPRPRPRPFDPPRP, 0.0149.
Consider RRIRSRPPRLPRPRPRPNCAPRP, for which the “shrunken log2 fold change” value is -0.172.
Next, RRIRSRPPRLPRPRPRPHSRPRP: -0.322; RRIRQRPPRLPRPRPRPDWFPRP: -0.104.
In the case of RRIRYRPPRLPRPRPRPCGRPRP it was -0.00865.
On to RRIRVRPPRLPRPRPRPEWSPRP, for which the “shrunken log2 fold change” value was 0.267.
Next, RRIRHRPPRLPRPRPRPNDNPRP: -1.03; RRIRTRPPRLPRPRPRPMKEPRP: -0.164.
Next, RRIRERPPRLPRPRPRPCCGPRP: -0.18.
For the sequence RRIRARPPRLPRPRPRPNWPPRP, the “shrunken log2 fold change” value came out at 0.0205.
Next, RRIRHRPPRLPRPRPRPKQFPRP: -0.108.
Next, RRIRIRPPRLPRPRPRPKCKPRP: -1.21.
Consider RRIRARPPRLPRPRPRPPWYPRP, for which the “shrunken log2 fold change” value is 0.139.
In the case of RRIRWRPPRLPRPRPRPFLQPRP it was -0.499.
Next, RRIRDRPPRLPRPRPRPGMGPRP: 0.645; RRIRIRPPRLPRPRPRPWKVPRP: 0.0349; RRIRHRPPRLPRPRPRPVRVPRP: 0.0942.
Turning to RRIRNRPPRLPRPRPRPCKQPRP, the “shrunken log2 fold change” value was -0.0218.
Turning to RRIRFRPPRLPRPRPRPSIEPRP, the “shrunken log2 fold change” value is -0.342.
For the sequence RRIRWRPPRLPRPRPRPSRPPRP, the “shrunken log2 fold change” value is 0.402.
In the case of RRIRERPPRLPRPRPRPNHIPRP it was -0.42; in that of RRIRTRPPRLPRPRPRPPNFPRP, -0.0576; in that of RRIRTRPPRLPRPRPRPHPPPRP, 0.271.
In the case of RRIRWRPPRLPRPRPRPDIHPRP it was -0.196; in that of RRIRTRPPRLPRPRPRPRMVPRP, 0.0186.
Next, RRIRYRPPRLPRPRPRPQHCPRP: -0.0601; RRIRCRPPRLPRPRPRPLNNPRP: -0.694; RRIRARPPRLPRPRPRPKDHPRP: 0.175.
RRIRARPPRLPRPRPRPGRHPRP: the “shrunken log2 fold change” value amounted to 0.159.
In the case of RRIRQRPPRLPRPRPRPCINPRP it was -0.0449; in that of RRIRYRPPRLPRPRPRPHLDPRP, -0.185; in that of RRIRQRPPRLPRPRPRPQGGPRP, 0.00902.
In the case of RRIRFRPPRLPRPRPRPQVEPRP it was -0.0419.
Next, RRIRPRPPRLPRPRPRPAPTPRP: 0.704; RRIRSRPPRLPRPRPRPPMWPRP: 0.54; RRIRERPPRLPRPRPRPGPIPRP: 0.0264.
In the case of RRIRWRPPRLPRPRPRPQYNPRP, the “shrunken log2 fold change” value was -0.554.
In the case of RRIRMRPPRLPRPRPRPGETPRP it was 0.0143; in that of RRIRNRPPRLPRPRPRPFGRPRP, -0.0535.
Turning to RRIRWRPPRLPRPRPRPFNIPRP, the “shrunken log2 fold change” value was -0.715.
Next, RRIRYRPPRLPRPRPRPWGFPRP: -0.167; RRIRHRPPRLPRPRPRPFKFPRP: -0.376.
On to RRIRNRPPRLPRPRPRPNFAPRP, for which the “shrunken log2 fold change” value was 0.0544.
Next, RRIRFRPPRLPRPRPRPEFCPRP: 0.139; RRIRTRPPRLPRPRPRPIIAPRP: 0.00466; RRIRWRPPRLPRPRPRPTFFPRP: 0.312.
For RRIRCRPPRLPRPRPRPRRVPRP, the “shrunken log2 fold change” value was found to be 0.342.
In the case of RRIRTRPPRLPRPRPRPGSWPRP it was 0.844.
Next, RRIRCRPPRLPRPRPRPFMYPRP: -0.592; RRIRSRPPRLPRPRPRPRMAPRP: 1.31; RRIRPRPPRLPRPRPRPQEWPRP: 0.0248.
Regarding RRIRQRPPRLPRPRPRPILIPRP, the “shrunken log2 fold change” value is -0.521.
In the case of RRIRPRPPRLPRPRPRPMWNPRP it was -0.216; in that of RRIRTRPPRLPRPRPRPCTMPRP, -0.0721.
In the case of RRIRNRPPRLPRPRPRPRKPPRP it was -0.0565; in that of RRIRARPPRLPRPRPRPYQLPRP, -0.215.
In the case of RRIRCRPPRLPRPRPRPGDHPRP it was -0.583; in that of RRIRHRPPRLPRPRPRPHQVPRP, -0.00848; in that of RRIRYRPPRLPRPRPRPQCEPRP, -0.0652.
With RRIRMRPPRLPRPRPRPPFHPRP, the “shrunken log2 fold change” value stood at 0.0707.
Next, RRIRWRPPRLPRPRPRPIGGPRP: -0.0334; RRIRGRPPRLPRPRPRPQNIPRP: -0.603; RRIRCRPPRLPRPRPRPETGPRP: -0.0271.
In the case of RRIRDRPPRLPRPRPRPTYHPRP it was -0.0146; in that of RRIRMRPPRLPRPRPRPNLWPRP, 0.119.
For the sequence RRIRDRPPRLPRPRPRPQVNPRP, the “shrunken log2 fold change” value is -0.182.
Next, RRIRYRPPRLPRPRPRPGHHPRP: -0.132; RRIRDRPPRLPRPRPRPKNKPRP: -0.314.
Next, RRIRFRPPRLPRPRPRPENCPRP: -0.855; RRIRSRPPRLPRPRPRPPNYPRP: -0.606.
As for RRIRWRPPRLPRPRPRPPQEPRP, the “shrunken log2 fold change” value came out at 0.567.
For RRIRSRPPRLPRPRPRPSSGPRP, the “shrunken log2 fold change” value is -0.0991.
Take RRIRLRPPRLPRPRPRPTNFPRP: the “shrunken log2 fold change” value was -0.0757.
Next, RRIRNRPPRLPRPRPRPDDQPRP: 0.0463.
Next, RRIRNRPPRLPRPRPRPWCIPRP: -0.573.
Take RRIRCRPPRLPRPRPRPHSAPRP: the “shrunken log2 fold change” value stood at 0.0702.
Next, RRIRYRPPRLPRPRPRPGKKPRP: -0.00101; RRIRFRPPRLPRPRPRPHDSPRP: 0.0531; RRIRNRPPRLPRPRPRPQPKPRP: 0.0668.
Next, RRIRDRPPRLPRPRPRPTREPRP: 1.46; RRIRARPPRLPRPRPRPWMAPRP: 0.0631.
Next, RRIRIRPPRLPRPRPRPVNFPRP: -0.0259; RRIRQRPPRLPRPRPRPKYDPRP: -0.165; RRIRMRPPRLPRPRPRPIDSPRP: 0.165.
Take RRIRKRPPRLPRPRPRPSIEPRP: the “shrunken log2 fold change” value was 0.0829.
On to RRIRFRPPRLPRPRPRPVSCPRP, for which the “shrunken log2 fold change” value is -0.514.
Next, RRIRHRPPRLPRPRPRPRCTPRP: 0.0847.
Next, RRIRLRPPRLPRPRPRPFKLPRP: -0.294.
Regarding RRIRARPPRLPRPRPRPAVNPRP, the “shrunken log2 fold change” value is 0.102.
Next, RRIRHRPPRLPRPRPRPASFPRP: -0.215; RRIRARPPRLPRPRPRPWSIPRP: -0.0906.
